The record followed here is article PMC4960556.

This series has as its target prostate-specific membrane antigen (PSMA) (UniProt Q04609). Briefly: confocal microscopy on cells (binding and internalization). Conditions: 2'-F pyrimidines (stated for PSEP; implied), Flow binding: 50 nM Cy3-RNA on trypsinized, PBS-washed cells, 300 ug/ml yeast tRNA, 30 min, 37 C, internalization: 100 nM in RPMI 1640 + 5% FBS.
Chain of UniProt Q04609 (Q04609 whole entry): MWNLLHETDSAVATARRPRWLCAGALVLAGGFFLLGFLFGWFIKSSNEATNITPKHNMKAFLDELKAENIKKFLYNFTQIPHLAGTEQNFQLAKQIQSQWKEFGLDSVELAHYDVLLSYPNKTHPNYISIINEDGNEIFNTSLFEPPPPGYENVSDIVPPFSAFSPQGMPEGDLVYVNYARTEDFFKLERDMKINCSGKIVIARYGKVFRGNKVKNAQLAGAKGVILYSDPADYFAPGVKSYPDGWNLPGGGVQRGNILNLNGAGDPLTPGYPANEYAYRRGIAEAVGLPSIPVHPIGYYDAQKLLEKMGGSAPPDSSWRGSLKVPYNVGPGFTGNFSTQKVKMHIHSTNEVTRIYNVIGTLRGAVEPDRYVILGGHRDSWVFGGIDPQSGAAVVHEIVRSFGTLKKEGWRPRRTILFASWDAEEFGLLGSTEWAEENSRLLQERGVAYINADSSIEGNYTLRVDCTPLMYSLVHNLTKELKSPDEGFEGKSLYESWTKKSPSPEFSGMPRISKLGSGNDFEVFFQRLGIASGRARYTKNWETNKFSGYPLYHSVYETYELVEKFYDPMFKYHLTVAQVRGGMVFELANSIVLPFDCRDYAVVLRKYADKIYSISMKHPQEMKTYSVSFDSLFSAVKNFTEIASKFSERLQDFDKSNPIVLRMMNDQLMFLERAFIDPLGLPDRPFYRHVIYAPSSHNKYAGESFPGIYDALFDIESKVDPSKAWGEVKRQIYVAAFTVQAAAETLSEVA

For “GGGAGGACGAUGCGGAUCAGCCAUGUUUACGUCACUCCUAAAAUGUAGAGAUGCGGUGGUCCUU / GGAUCCCGACUGGCGAGAGCCAGGUAACGAAUGGAUCCAAAAACCUUAGCAGUCUUAUCUAAUUUUGGACCACCGCAUCUCUACAUU / UUAGAUAAGACUGCUAAGGCA [PSEM (monovalent: one PSMA aptamer, one MG aptamer)]”, the binding signal (fraction of PSEP fluorescence) amounted to 0.5.
